The nature of one data set: Acid stability. The class given is physicochemical.
A further data set has as its target plasmin (Homo sapiens, UniProt P00747). In words: Inhibition of plasmin (TGPLpNA substrate). The format is biochemical. As to the method: (§1) 100 μl inhibitor (1 μg/ml) and 100 μl trypsin (1 μg/ml) or plasmin (1 μg/ml) as appropriate were incubated for 30 minutes before adding the substrate, 0.1 mM tosyl-glycyl-prolyl-lysin-pNA (Boehringer Mannheim, FRG) in 0.05M HEPES, 0.12M NaCl, pH7.5.

The subject of the next data set is trypsin. Description: Inhibition of trypsin (TGPLpNA substrate). The class given is biochemical. As for the experimental part: as §1
Another data set concerns the target T1, Proteinase 3 (Homo sapiens, UniProt P24158).
T1 construct: Proteinase 3 was purified from human polymorphonuclear leukocytes using the method of Ludemann; from tissue; host or cells: human polymorphonuclear leukocytes
T1 sequence (P24158 28-256): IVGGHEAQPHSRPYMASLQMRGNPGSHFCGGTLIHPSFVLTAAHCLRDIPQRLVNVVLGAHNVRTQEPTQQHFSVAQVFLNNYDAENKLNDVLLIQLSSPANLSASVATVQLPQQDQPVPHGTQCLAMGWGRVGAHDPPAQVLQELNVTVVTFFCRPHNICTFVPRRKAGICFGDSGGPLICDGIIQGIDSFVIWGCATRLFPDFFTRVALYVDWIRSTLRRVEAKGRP
In words: Inhibition of proteinase 3 (elastin-FITC hydrolysis). The conditions noted are these: 37° C., 4 hours, pH 8.5, read-out: IC50 against proteinase 3. The class given is biochemical. As to the method: Proteinase 3 was purified from human polymorphonuclear leukocytes using the method of Ludemann reported in J Exp Med 171, 357-362, 1990. The absence of human leukocyte elastase and cathespin G was confirmed by the lack of activity of the proteinase 3 preparation with the substrates methoxy-succinyl-ala-ala-pro-val-p-nitroanilide (AAPVpNA), and succinyl-ala-ala-phe-p-nitroanilide respectively according to the method of Nakajima (7).
The elastinolytic activity was determined by hydrolysis of bovine ligamentum nuchae elastin-FITC (Elastin Products Corporation, USA).
The proteinase 3 preparation (1 μl) was preincubated at 37° C. for 30 minutes with the elastase inhibitor of formula I (0-1 μg) in carbonate buffer (50 μl, 0.1M), NaN3 (0.02%), Brij 35 (0.01%), pH8,5. Elastin-FITC (1 mg) in carbonate buffer (100 μl, 0.1M), NaN3 (0.02%), Brij 35 (0.01%), pH8.5. The mixture was incubated at 37° C. with gentle agitation for 4 hours, and then centrifuged at 6000×g. The supernatants were diluted 1:20 and the fluorescence of the solubilised elastin-FITC was determined using a Perkin Elmer LS 50 microtiterplate reader at Ex489 nm, Em 513 nm. Fluorescence was corrected by enzyme free controls and inhibition expressed in % of inhibitor free controls.

Another data set in a line: Isoelectric focussing. Particulars: silver stain and enzymatic detection in gel slices. The format is physicochemical. As for the experimental part:
Isoelectric focussing was performed by using Servalyt Precoates pH 3-10 and Test-Mix 9 (Serva). Prefocussing was for 30 minutes at 3 watts, and silver stain (Sigma) or Comassie blue R stain was used according to Serva instructions. In parallel, the precoates were sliced and eluted to localise inhibitory active peptides. Approximately 1 mm slices were eluted with 100 μl acetonitrile. The eluates were allowed to dry and were resolved in 100 μl of buffer (0.1M HEPES, 0.5M NaCl, 1% BSA, pH 7.5) containing 20 ng HLE. After 30 minutes incubation the remaining HLE activity was determined.

Another data set deals with T2, human cathepsin G (Homo sapiens, UniProt P08311).
T2 sequence (P08311 21-255): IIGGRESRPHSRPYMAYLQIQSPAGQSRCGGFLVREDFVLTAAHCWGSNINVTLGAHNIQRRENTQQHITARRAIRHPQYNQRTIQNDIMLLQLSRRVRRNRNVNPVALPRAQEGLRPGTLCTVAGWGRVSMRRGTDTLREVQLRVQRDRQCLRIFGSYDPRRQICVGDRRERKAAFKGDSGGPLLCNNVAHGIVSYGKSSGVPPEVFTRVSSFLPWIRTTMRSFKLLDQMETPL
In words: Inhibition of cathepsin G (AAPFpNA substrate). The format is biochemical. Particulars: substrate 0.5 mM AAPFpNA; inhibitor up to 1 μg/ml (threefold molar); n.i. = no inhibition. As for the experimental part: (§2) The activities of cathepsin G and Alpha-chymotrypsin were determined according to the method of Nakajima et al (9) using an analogue to HLE—succinyl-alanyl-alanyl-prolyl-phenylalanyl-p-nitroanilide (AAPFpNA, Sigma). For inhibition experiments, the highest concentration of the inhibitor was 1 μg/ml, representing a threefold molar concentration as compared to cathepsin G and Alpha-chymotrypsin.

The next data set concerns the target Alpha-chymotrypsin (Bos taurus, UniProt P00766). In words: Inhibition of Alpha-chymotrypsin (AAPFpNA substrate). The class given is biochemical. As to the method: as §2
For a further data set, the target named is T3, human leukocyte elastase (Homo sapiens, UniProt P08246).
T3 construct: purchased Elastin Products Corporation, Pacific, Mo., USA
T3 sequence (P08246 30-267): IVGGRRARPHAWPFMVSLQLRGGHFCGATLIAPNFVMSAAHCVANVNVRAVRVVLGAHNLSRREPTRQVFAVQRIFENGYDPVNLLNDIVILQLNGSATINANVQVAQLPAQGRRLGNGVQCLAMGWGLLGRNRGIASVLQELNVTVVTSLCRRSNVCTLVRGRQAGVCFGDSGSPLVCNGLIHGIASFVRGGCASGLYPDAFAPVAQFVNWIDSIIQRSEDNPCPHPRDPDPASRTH
Description: Inhibition of human leukocyte elastase (AAPVpNA substrate; Ki by Green and Work). The class given is biochemical. The conditions noted are these: for Ki: method of Green and Work. As for the experimental part: The potency of polypeptides of the present invention to act as an elastase inhibitor was determined by the ability of a compound of the invention to inhibit the action of human leukocyte elastase (HLE) on a low molecular weight peptide substrate. The potency of an inhibitor was evaluated by obtaining a kinetic determination of the dissociation constant, Ki, of the complex formed from the interaction of th inhibitor with HLE. The substrate used was the anilide methoxysuccinyl-alanyl-alanyl-prolyl-valine-p-nitroanilide as described by K. Nakajima et al. in the J. Biol. Chem., 254: 4027-4032 (1979) and by T. Teshima et al. in J. Biol Chem., 257: No 9, 5085-5091 (1982). The HLE enzyme used in these studies may be obtained from Elastin Products of St. Louis, Mo. or can be purified according to B. R. Viscarello et al. in Preparative Biochemistry, Vol. 13, pages 57-67, (1983).
The activity of human leukocyte elastase (EC 3.4.21.37) was determined according to the method of Nakajima et al (7). Inhibition of HLE was determined by the use of the synthetic peptide methoxy-succinyl-alanyl-alanyl-prolyl-valyl-p-nitro anilide (AAPVpNA, Sigma).
Sample (100 μl) and 100 μl HLE (200 ng/ml; Elastin Products Corporation, Pacific, Mo., USA) in assay buffer (0.1M, HEPES, 0.5M NaCl, 10% DMSO, pH 7.5) were incubated for 30 minutes at room temperature. Substrate (800 μl 0.5 mM) in assay buffer was then added.
Changes in absorbance at 405 nm were followed up to 1 hour and the %-inhibition was calculated from the remaining activity and controls. The dissociation constant (Ki) was determined according to the method of Green and Work (8) in the same system, using 2 mM substrate and (1 μg/ml) HLE (final concentrations).

Data set [1] addresses porcine pancreatic elastase (Sus scrofa, UniProt P00772). Description: Inhibition of porcine pancreatic elastase (AAPV-AFC fluorogenic substrate). The class given is biochemical. As to the method:
The activity of porcine pancreatic elastase (E.C. 3.4.21.36) was determined using the flourogenic substrate methoxy-succinyl-alanyl-alanyl-prolyl-valyl-trifluoromethylcoumarine (AAPV-AFC, Bachem, Bubendorf, Switzerland).
Elastase (100 μl) and inhibitor (100 μl) were pre-incubated for 30 minutes. A solution of substrate (1.8 ml of a 0.1 mM solution) was then added. Flourescence, Ex 400 Em 505, was followed and the %-inhbition was calculated from the initial activity of samples and controls. The dissociation constant (Ki) was determined according to the method of Green and Work (8).

Where [2] appears, read: at least threefold excess of the inhibitor.
[3] abbreviates: substrate 0.1 mM TGPLpNA, inhibitor 1 μg/ml, n.i. = no inhibition.

Read-outs that look alike come from different tables or passages of the source. No end group written: not given here.

plasmin, sequence (P00747 581-810 limits assumed, species assumed): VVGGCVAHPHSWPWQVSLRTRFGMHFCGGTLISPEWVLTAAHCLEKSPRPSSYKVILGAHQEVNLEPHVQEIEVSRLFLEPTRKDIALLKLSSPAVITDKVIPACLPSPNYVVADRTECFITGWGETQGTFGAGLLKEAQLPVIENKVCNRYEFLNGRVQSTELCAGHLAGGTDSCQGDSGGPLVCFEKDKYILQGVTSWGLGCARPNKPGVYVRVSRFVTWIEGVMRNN
plasmin, sequence (P00747 97-580 partner limits assumed, species assumed): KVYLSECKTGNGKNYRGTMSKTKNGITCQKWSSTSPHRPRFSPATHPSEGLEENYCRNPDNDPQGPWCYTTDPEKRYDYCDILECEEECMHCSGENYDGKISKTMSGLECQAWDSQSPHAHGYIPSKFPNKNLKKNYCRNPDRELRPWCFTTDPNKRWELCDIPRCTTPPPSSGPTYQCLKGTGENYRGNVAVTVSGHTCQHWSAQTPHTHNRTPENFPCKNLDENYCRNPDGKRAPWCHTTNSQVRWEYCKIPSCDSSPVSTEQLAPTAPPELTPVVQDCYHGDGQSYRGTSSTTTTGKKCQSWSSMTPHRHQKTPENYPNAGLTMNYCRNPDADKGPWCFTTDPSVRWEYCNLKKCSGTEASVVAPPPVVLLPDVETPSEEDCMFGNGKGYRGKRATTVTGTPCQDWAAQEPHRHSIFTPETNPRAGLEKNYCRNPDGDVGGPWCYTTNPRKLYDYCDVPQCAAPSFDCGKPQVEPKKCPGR
porcine pancreatic elastase, sequence (P00772 27-266): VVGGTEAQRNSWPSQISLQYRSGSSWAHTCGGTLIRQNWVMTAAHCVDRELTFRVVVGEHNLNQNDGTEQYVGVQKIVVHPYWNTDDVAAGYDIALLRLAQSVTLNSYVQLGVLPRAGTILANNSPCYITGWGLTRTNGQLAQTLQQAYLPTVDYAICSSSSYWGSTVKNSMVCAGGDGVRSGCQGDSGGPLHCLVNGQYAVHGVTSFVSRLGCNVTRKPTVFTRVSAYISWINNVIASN

Take “AQEPVKGPVSTKPGSCPIILIRCAMLNPPNRCLKDTDCPGIKKCCEGSCGMACFVPQ (cysteine pairing not given here) [prominent inhibitor]”: the acid stability entry in the data set “Acid stability” is recorded as “acid stable”. In addition, in the data set with plasmin (setting [2]), the “inhibition of plasmin (in words)” value was “neither Alpha- chymotrypsin, nor trypsin and plasmin were significantly inhibited”. The “DISSOCIATION CONSTANT (Ki), plasmin” value with plasmin (setting [3]) is recorded as “n.i”. Further, the “inhibition of trypsin (in words)” value in the data set on trypsin (setting [2]) is “neither Alpha- chymotrypsin, nor trypsin and plasmin were significantly inhibited”. The “DISSOCIATION CONSTANT (Ki), trypsin” value at trypsin (setting [3]) is “n.i”. Also, the IC50 in the data set with Proteinase 3 worked out at 9.5 nM. The isoelectric point in the data set “Isoelectric focussing” is 9.7 pH. Moreover, the “DISSOCIATION CONSTANT (Ki), human cathepsin G” value with human cathepsin G is given as “n.i”. Moreover, the “inhibition of Alpha-chymotrypsin (in words)” value with Alpha-chymotrypsin (setting [2]) was “neither Alpha- chymotrypsin, nor trypsin and plasmin were significantly inhibited”. For the same sequence, the “DISSOCIATION CONSTANT (Ki), Alpha-chymotrypsin” value with Alpha-chymotrypsin (substrate 0.5 mM AAPFpNA, inhibitor up to 1 μg/ml (threefold molar), n.i. = no inhibition) is “n.i”. For the same sequence, in the data set with human leukocyte elastase, the “inhibition of HLE (in words)” value is given as “found to inhibit”. Also, the Ki with human leukocyte elastase (Poly LC-HPLC peak compared with inhibitor from human skin, read-out: Ki, titrated against HLE) came out at 0.33 nM; with human leukocyte elastase (substrate 2 mM AAPVpNA, 1 μg/ml HLE, read-out: DISSOCIATION CONSTANT (Ki), human leukocyte elastase), 0.3 nM; in data set [1] (substrate 0.1 mM AAPV-AFC, method of Green and Work, read-out: DISSOCIATION CONSTANT (Ki), porcine pancreatic elastase) it was 1 nM. The “inhibition of porcine pancreatic elastase (in words)” value in data set [1] is on record as “found to inhibit”.

Values taken from US6893843B2, “Nucleic acids” (priority 1990, dated 2005).
